We go through two molecules from patent US7977317B2, “Compositions and methods for modulating blood-brain barrier transport” (Raptor Pharmaceutical Inc., priority 2001, dated 2011).

One assay concerns Megalin. The assay is described as follows: RT-PCR after p97 treatment in U-87 cells: Megalin. It is filed as cell-based, human. The conditions noted are these: 72 hours, RT-PCR (FIG. 35). How it is done:
(§1) FIG. 35. Effect of p97 and RAP treatments in U-87 cells (RT-PCR). Cells (2×10^5) were plated onto six-multiwell microplates and grown at 37° C. under 5% CO2 with optimal culture medium supplemented with serum for 4 days. Treatment was performed in serum free medium for 72 hours. RNA isolation and RT-PCR were performed as described in the Examples. The amplified PCR products were electrophoresed on a 2% agarose gel and visualized under ultraviolet light. (n=2 for p97), (n=1 for RAP)
(§2) FIG. 38. Effect of p97 and RAP treatments in U-87 cells on expression of cubulin (A), P97 (B) and Megalin (C). The amplified PCR products were electrophoresed on a 2% agarose gel and visualized under ultraviolet light. (n=1). Quantification was by densitometry of p97 and RAP treatments on the RNA levels of LRP1B, LRP, LDL-R, cubilin, endogenous p97 and megalin. Results are expressed as ratios of RNA levels between control and treated U-87 cells.
(§3) RNA extraction. Cells in six-wells plate or in 75 cm^2 plastic tissue culture flasks were grown at 37° C. under 5% CO2 with optimal culture medium to 80-90% confluence. Total cellular RNA was preserved in Trizol (Gibco BRL, Burlington, ON). The solution are frozen at −80° C. until extraction. The solution was defroze and mixed with 5:1 chloroform for 3 minutes at room temperature. The suspension was centrifugated at 12000 g at 4° C. […]

A further assay deals with LRP1B. The assay is described as follows: RT-PCR after p97 treatment in MG1391 fibroblast cells: LRP1B. It is filed as cell-based. As to conditions: fibroblast cell line MG1391, RT-PCR (FIGS. 40 and 41). Here is the method:
FIG. 39 show the expression of members of the LDL receptor family in MG1391. RT-PCR. RT-PCR was performed for members of the LDL-R family: LRP, LRP1B, megalin, LDL, VLDL, LRP8, LR11, LRP5 and cubulin. DNA (cDNA) synthesis was performed with 1 μg of total RNA using a cDNA one step synthesis kit (Invitrogen, USA) following the manufacturer's protocol. (1× of reaction mix, RNA 1 μg, 0.2 μM of both primers, 1 μl of RT/Platinum Tag mix). The cDNA generated was amplified using primers produced with MacVector 7.0 (Oxford molecular Ltd, Oxford, UK). All the subsequent assays were then performed under conditions that produced amplifications of cDNA within a linear range. RT inverse-transcription was performed at 50° C. for 30 min. PCR amplification for 35 or 40 cycles for all was performed as follows: denaturation at 94° C. for 30 s, annealing at 60° C. for 30 s and extension at 72° C. for 1 min. Finalisation stage was performed at 72° C. for 5 min. Tubes containing all the ingredients except templates were included in all runs and served as negative controls. The amplified PCR products were electrophoresed on a 1% agarose gel in TAE (40 mM Tris, […], 1 mM EDTA, […] Ethidum bromide) and were visualized under ultraviolet light followed by densitrometric analysis.

Another assay deals with Cubilin. The assay is described as follows: RT-PCR after p97 treatment in U-87 cells: Cubilin. The class given is cell-based, human. The conditions noted are these: 72 hours, RT-PCR (FIG. 35). Here is the method: as §1, §2, §3
Assay [1] relates to BBCEC monolayers. Put plainly: Transcytosis of bovine [125I]-lactoferrin across BBCEC monolayers, inhibition by p97. The class given is cell-based. As to conditions: 200-fold molar excess of unlabelled p97, 37° C. (FIG. 16c).
For assay [2], the target named is BBCEC monolayers. The conditions noted are these: −saponin, cited from earlier work.
In another assay the target is LRP (Homo sapiens, UniProt Q07954). The conditions noted are these: Tables 1-3; cited from earlier work.
LRP, sequence (Q07954 20-4544): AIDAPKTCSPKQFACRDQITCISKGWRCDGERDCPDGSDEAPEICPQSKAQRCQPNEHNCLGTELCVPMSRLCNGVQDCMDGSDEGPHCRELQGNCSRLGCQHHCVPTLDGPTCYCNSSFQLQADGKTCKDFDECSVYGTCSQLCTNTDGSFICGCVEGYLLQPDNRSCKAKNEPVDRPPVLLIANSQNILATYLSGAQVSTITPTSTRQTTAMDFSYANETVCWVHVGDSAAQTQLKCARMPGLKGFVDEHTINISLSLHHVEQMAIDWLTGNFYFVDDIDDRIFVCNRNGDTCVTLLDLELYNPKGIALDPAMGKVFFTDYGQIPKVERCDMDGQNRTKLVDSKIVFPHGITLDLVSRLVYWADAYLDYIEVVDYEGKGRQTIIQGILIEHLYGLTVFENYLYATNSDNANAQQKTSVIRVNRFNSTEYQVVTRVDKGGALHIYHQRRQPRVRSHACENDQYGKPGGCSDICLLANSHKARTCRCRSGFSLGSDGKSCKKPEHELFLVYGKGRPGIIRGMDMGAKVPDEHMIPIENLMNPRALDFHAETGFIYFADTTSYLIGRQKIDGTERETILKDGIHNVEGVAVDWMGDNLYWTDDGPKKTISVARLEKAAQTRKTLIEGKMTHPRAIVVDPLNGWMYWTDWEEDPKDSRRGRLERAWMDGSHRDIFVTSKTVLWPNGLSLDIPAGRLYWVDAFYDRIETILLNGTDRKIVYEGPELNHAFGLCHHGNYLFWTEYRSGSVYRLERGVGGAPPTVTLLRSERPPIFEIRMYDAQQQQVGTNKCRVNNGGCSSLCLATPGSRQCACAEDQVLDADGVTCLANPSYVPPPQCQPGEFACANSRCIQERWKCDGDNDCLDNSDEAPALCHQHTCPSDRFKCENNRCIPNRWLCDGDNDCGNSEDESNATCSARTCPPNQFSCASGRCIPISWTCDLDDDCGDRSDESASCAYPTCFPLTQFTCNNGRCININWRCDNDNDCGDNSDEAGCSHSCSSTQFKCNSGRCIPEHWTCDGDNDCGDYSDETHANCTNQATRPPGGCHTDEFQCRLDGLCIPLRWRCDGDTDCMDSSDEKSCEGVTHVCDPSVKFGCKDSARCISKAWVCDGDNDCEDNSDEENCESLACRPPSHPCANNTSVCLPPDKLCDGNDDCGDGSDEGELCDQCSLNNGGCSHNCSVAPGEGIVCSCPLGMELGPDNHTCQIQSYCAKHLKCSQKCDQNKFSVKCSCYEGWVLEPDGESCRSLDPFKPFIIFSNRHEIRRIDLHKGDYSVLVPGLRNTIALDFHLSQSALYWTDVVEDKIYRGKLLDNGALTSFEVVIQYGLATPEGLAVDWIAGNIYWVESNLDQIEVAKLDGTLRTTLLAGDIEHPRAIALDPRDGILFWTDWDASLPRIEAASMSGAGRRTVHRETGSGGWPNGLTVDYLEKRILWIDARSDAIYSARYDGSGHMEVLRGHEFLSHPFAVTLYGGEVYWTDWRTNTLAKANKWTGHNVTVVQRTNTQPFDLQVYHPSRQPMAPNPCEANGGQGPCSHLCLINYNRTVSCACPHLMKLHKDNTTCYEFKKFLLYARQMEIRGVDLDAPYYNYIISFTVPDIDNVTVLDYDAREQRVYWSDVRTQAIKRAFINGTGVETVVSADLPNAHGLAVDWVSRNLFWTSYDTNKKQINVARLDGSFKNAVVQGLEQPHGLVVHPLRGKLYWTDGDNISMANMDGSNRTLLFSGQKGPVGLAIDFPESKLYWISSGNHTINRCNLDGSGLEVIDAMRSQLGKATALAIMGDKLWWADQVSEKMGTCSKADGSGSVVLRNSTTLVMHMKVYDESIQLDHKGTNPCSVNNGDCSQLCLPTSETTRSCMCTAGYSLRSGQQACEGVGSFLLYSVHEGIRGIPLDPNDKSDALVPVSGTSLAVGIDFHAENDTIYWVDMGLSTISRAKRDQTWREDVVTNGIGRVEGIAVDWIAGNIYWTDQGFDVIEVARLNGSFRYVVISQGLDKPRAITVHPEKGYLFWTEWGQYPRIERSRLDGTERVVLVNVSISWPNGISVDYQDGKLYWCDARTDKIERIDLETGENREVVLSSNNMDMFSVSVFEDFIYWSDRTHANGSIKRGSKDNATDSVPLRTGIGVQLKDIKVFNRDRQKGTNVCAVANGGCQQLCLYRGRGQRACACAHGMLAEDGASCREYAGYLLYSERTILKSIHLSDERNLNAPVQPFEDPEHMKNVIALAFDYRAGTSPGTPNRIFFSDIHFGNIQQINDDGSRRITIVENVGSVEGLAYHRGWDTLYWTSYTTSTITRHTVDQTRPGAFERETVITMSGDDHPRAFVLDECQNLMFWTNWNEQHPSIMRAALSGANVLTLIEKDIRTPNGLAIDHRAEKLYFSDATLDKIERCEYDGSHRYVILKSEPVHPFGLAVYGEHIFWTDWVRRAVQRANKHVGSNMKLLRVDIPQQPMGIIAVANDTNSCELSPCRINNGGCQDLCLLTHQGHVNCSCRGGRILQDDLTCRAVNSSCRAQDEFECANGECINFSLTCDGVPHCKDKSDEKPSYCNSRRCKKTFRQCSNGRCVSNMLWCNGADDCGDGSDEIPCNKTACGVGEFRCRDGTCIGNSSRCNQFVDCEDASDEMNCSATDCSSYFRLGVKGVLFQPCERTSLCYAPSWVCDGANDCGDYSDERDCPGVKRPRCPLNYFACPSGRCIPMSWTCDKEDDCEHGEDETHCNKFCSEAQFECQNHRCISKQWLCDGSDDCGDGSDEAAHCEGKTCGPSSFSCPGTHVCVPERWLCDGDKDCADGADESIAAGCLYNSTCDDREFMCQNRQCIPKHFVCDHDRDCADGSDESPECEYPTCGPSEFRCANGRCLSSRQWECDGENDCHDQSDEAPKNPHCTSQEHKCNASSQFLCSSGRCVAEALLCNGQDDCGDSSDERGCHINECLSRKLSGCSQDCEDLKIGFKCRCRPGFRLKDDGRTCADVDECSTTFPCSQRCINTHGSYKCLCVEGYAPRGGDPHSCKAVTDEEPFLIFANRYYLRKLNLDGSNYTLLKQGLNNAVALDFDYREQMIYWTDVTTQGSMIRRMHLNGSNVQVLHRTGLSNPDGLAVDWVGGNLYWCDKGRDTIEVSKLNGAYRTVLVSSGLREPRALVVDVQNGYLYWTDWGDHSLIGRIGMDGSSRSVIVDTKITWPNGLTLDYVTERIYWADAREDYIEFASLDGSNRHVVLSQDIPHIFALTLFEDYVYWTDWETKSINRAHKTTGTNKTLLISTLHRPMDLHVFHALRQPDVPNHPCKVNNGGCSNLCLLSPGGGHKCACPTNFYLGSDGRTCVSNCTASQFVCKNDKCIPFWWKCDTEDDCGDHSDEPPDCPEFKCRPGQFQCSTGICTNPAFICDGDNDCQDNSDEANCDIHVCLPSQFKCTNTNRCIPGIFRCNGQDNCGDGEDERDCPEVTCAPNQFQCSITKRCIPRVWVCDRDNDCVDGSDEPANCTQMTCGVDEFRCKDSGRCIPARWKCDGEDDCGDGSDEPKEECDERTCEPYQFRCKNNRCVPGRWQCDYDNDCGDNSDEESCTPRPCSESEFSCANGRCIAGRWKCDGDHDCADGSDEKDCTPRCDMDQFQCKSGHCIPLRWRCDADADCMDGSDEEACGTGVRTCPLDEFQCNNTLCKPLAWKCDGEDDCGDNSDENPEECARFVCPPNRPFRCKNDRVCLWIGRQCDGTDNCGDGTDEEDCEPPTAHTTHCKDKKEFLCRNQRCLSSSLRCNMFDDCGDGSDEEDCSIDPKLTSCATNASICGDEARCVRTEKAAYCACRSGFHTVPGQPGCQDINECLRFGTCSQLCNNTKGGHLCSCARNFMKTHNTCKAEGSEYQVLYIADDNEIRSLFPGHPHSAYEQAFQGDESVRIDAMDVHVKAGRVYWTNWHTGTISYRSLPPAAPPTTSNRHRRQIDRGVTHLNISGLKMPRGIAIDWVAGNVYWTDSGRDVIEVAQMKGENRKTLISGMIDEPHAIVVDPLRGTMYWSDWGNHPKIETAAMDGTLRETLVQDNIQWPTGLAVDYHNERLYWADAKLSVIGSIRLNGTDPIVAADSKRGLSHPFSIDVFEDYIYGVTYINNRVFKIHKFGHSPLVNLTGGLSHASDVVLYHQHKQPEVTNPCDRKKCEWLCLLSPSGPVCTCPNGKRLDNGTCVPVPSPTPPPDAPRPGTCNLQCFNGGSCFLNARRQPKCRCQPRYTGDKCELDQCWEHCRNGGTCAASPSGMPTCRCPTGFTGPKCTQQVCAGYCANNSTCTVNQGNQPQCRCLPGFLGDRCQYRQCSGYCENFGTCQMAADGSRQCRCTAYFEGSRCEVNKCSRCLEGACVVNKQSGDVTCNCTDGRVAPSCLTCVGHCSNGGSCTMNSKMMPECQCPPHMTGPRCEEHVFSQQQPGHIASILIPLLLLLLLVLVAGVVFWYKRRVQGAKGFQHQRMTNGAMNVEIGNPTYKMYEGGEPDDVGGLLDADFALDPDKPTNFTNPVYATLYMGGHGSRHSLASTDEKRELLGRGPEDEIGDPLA

Where two headings read alike, the source gives them in different places.

B1: p97: recombinant human melanotransferrin (p97), provided by Synapse Technologies (protein, UniProt P08582 20-709, looked up)
Melanotransferrin: GMEVRWCATSDPEQHKCGNMSEAFREAGIQPSLLCVRGTSADHCVQLIAAQEADAITLDGGAIYEAGKEHGLKPVVGEVYDQEVGTSYYAVAVVRRSSHVTIDTLKGVKSCHTGINRTVGWNVPVGYLVESGRLSVMGCDVLKAVSDYFGGSCVPGAGETSYSESLCRLCRGDSSGEGVCDKSPLERYYDYSGAFRCLAEGAGDVAFVKHSTVLENTDGKTLPSWGQALLSQDFELLCRDGSRADVTEWRQCHLARVPAHAVVVRADTDGGLIFRLLNEGQRLFSHEGSSFQMFSSEAYGQKDLLFKDSTSELVPIATQTYEAWLGHEYLHAMKGLLCDPNRLPPYLRWCVLSTPEIQKCGDMAVAFRRQRLKPEIQCVSAKSPQHCMERIQAEQVDAVTLSGEDIYTAGKTYGLVPAAGEHYAPEDSSNSYYVVAVVRRDSSHAFTLDELRGKRSCHAGFGSPAGWDVPVGALIQRGFIRPKDCDVLTAVSEFFNASCVPVNNPKNYPSSLCALCVGDEQGRNKCVGNSQERYYGYRGAFRCLVENAGDVAFVRHTTVFDNTNGHNSEPWAAELRSEDYELLCPNGARAEVSQFAACNLAQIPPHAVMVRPDTNIFTVYGLLDKAQDLFGDDHNKNGFKMFDSSNYHGQDLLFKDATVRAVPVGEKTTYRGWLGLDYVAALEGMSSQQC
On to B1, for which, in the assay on Megalin, the “Expression of the Megalin receptor” value is “not”. The “Expression of LRP1B in MG1391 cells” value in the assay on LRP1B is listed as “particularly induces the expression”. Moreover, the “Expression of the Cubilin receptor” value in the assay with Cubilin is “induces the expression”. Besides, in the assay on BBCEC monolayers [1], the “Inhibition of the transcytosis of bovine [125I]-lactoferrin” value is on record as “more than 75%”.

B2: lactoferrin: lactoferrin (Lf), LRP ligand used as competitor (protein, UniProt P02788 20-710, looked up)
Lactotransferrin: GRRRSVQWCAVSQPEATKCFQWQRNMRKVRGPPVSCIKRDSPIQCIQAIAENRADAVTLDGGFIYEAGLAPYKLRPVAAEVYGTERQPRTHYYAVAVVKKGGSFQLNELQGLKSCHTGLRRTAGWNVPIGTLRPFLNWTGPPEPIEAAVARFFSASCVPGADKGQFPNLCRLCAGTGENKCAFSSQEPYFSYSGAFKCLRDGAGDVAFIRESTVFEDLSDEAERDEYELLCPDNTRKPVDKFKDCHLARVPSHAVVARSVNGKEDAIWNLLRQAQEKFGKDKSPKFQLFGSPSGQKDLLFKDSAIGFSRVPPRIDSGLYLGSGYFTAIQNLRKSEEEVAARRARVVWCAVGEQELRKCNQWSGLSEGSVTCSSASTTEDCIALVLKGEADAMSLDGGYVYTAGKCGLVPVLAENYKSQQSSDPDPNCVDRPVEGYLAVAVVRRSDTSLTWNSVKGKKSCHTAVDRTAGWNIPMGLLFNQTGSCKFDEYFSQSCAPGSDPRSNLCALCIGDEQGENKCVPNSNERYYGYTGAFRCLAENAGDVAFVKDVTVLQNTDGNNNEAWAKDLKLADFALLCLDGKRKPVTEARSCHLAMAPNHAVVSRMDKVERLKQVLLHQQAKFGRNGSDCPDKFCLFQSETKNLLFNDNTECLARLHGKTTYEKYLGPQYVAGITNLKKCSTSPLLEACEFLRK
For orientation: Kd means the concentration at which binding is half-saturated. For B2, the Kd is 35 nM on BBCEC monolayers [2] (Site 1, published value) and 1900 nM on BBCEC monolayers [2] (Site 2, published value). Moreover, in the assay with LRP, the “Binding to LRP” value is on record as “Yes”.
